According to the domain aggregation screens of Martell et al. (2025):

Assay: soluble fraction after stress (log2 fold change); higher = more stays soluble; pooled small domains, quantitative proteomics
Conditions: stress: 50 degC
How it was run: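 Pooled custom libraries of small protein domains were each held under stress at 50°C. The read-out, high-throughput quantitative proteomics, tracked how much of each protein stayed soluble. This is reported as a base-two log fold change used to indicate aggregation propensity. Higher values mean more protein remains in solution.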

Sequence | soluble fraction (log2)
HMRRPRGVFNLVPGKRFGFITPDGGGEDVFAHLANVRAGHVAEDRNAVEYGIGRGPDGRDQAVDIVPMP | -0.128
HMEQIETIFLSAAPYARTHIIHLLETSELFRDKYLTIVETSNGLLIYTEDKNRLLGILNSLT | -1.9
HMGVMTGAEFVGNTVASVERNLIIDTLKHTMGNRTTAANILGISIRTLRNKLKQYQNEGFDIPE | -0.703
HMISFTDLEHIEKMIENVLYTKTPLNLPPTDAKIRKIEHQIARRYGLNSESFGDEPRRFVVVYPNEERE | -0.625
HMEEIALTDILNRFLSSLSLEQRKIFMRRYWYLSPIKEIATEYGMSESKIKMSLFRSRNELKKLLEKEGI | -0.396
HMDIEHREMKLQKLVITADSPLVGKTLKESNVRQRYNFMVVGVEEGQKNLTMINPNRRFEVGDIVWVVGEE | -0.0892
HMDFFVLVGAYKTPDEAETIRAKIAFSGLDSSVSHGNDGRYRVRIGPFHSEGDARKAQSTLRANDIPGQII | -0.0926
HMTTEIVRMKKDVKIGQEITAKDIEVVEVGAYNLPDEVIRSSEEVVGKYVSSELLKGEYVLPSKISDTP | 0.0729
HMTEDIAVRILEFLEDNNGFYALNDKTPSEKIHDLFGVSKKKFKIALGGLYKQRLITVSDAGVTLVK | -1.29
HMPPAIKTLMFMIQNKSLLKSPKQLAVVQQQLKKIKGVRDVLILLEEGKVMLKVNKHETIHEASIIRLLGG | -0.521
HMHMSKKLADSISALRKKNGLSQEQLAEKIGISRQTVSNWERGIATPDVETLNLISKLFDEDLSVMING | 0.199
HMTPTITNALEEAEKAVSEVQEGKKEIELTPQGAYIRHLQHAIADRYGISSTSTGRDPKRKVIIY | -0.108
HMSGHIPGIKIKGVIFFDKGSSSNHIIATTENNSNLKLRVGETVQGAVLKSIHPNHVIFFHHNQLIEVGIG | -2.21
HMLSTNDYNENKNKLIKDFEIKFIIKHLKLNKGNVAATARSINFHPVSLRQKIAKLGIDVDEVMAG | -1.84
HMDKPVIEDVSFDDLAYMVGERVIIRTHLRSTRDGELKSFNRAGILVSLRNRPGMELEIPRSTVASAQVVW | -2.45
HMFVEEGSLKKITFDTYEFNITDNLKSLRVTYQGLLPNLFREGQGVVIEGILLEQNYIQANTVF | 0.22
HMDYKSNLQEMVQTTKKSVTYELVKEEGPAHDRTFTMNVIVDGIVLGTGTAKSKKEAEQEAAHQALEKKA | -0.0398
HMPRPRIHSVVRGDTLYGISRQYGVAMSKLASLNGLKSPYRIMVGRSLRLPSAIEAERDRTAREVVQ | -1.45
HMQGDHELSQRILSYLSEQGGSSPLTDKASPEEIYRIFRVSKKKYKQALGNLYKSKSIIILADKIQLL | -0.736
HMGKRKDFTYTGNYFSEYKNQTFPSLSSFLKLVGKYENYGTIKRRVRFGWDIDEAILRENIN | -0.773
HMTEFFNMQDMFYFKLTGDVTSKERRQSLGKILGIGYGNAAQMVSRLNNYGITKEEFTNAINEIEKQMEAG | -0.775
HMTTGLETYPGKIAVVSDDFIDGEGRVQLDGALWRAKTKDHQQLKQGDHVTIVNVKGLTLTVMPDD | 0.23
HMLETIDIFKVTGGEPFLSKDFLEILDLAIEKDLAKNITLMITTNASKFVKKILDKFIHFKRVEFTVS | 0.0202
HMSPGAKIEVTGNTVNLRAGPGTNYDTRGQVKKGEQLPLLGEQGGWYRVQTSRGVAYLAGWLARVLT | 0.0409
HMAPLATLEADGNGAVKLPNLAGHAIREVAAALGGANLALIPIGSGTSWKQNPAPGTILHKGDTVTVYF | -0.0832

Sequence | soluble fraction (log2)
HMYLGRKATLLSSISGEKMGNAEVLADGNLMSIYVKSLTGEPLSYGSTVLIIKHSEDQNFYLVQN | -2.58
HMPKAPHETLSRREMEVLLLLSEGVTLTRIGDTIHVSVKTVSTYRARILQKLDLQSNAELTRYVLQHKL | -3.38
HMSESAGKALDILFYLARVEDEVSLARLSKETGMNKATALRYLAVLESWGVVEKRPSGWSLGLSLFELGSK | -2.13
HMINGTITFYDDTTLKGELSSLDTKYLFIIPNGLVMPEKIAVSDIEYFNLDNGITLIQDGISKQTY | -1.25
HMNYSIVNVGFNNKSLFLRSAPGYSASRLLLPFATERAFVRETLSNGWSRVIVRGTEGYLPTEYVAD | 0.179
HMFFDSDTDIQNALNAENSIKKYQLFRTQTLYNSAQSDIDFVNQPEVKAKLFDALENLKNKLGFLAEPT | -0.247
HMAAINTYQVRKIYAIAGALGMKSRDGDDALHDLVFGMTGKQHISGLTSAEAYDVIAELEKKQ | -1.66
HMDLKENQHILQISNKGVQMGNVLKDLIIQTLNITNGNQIKAAKLLAISRAKLRYRIEQLGINISGKNI | -0.215
HMAVSDPTAGGIKALMYPNPAQDRLSVALDIPAGLDKQAQMTVTDMMGRVVTQQQVTLNDGFQVFEL | 0.215
HMNTVSVGNLGLSVRAVNALKQAGIDTYDKLQELSWEELLLIPKLGQVTAAEIYRFITSYKKG | -0.552
HMPLVIIRGIEGVFSSEEKAEAIRKVTDALVSVKGENVRGFAWVVFEEVKSGDWGIGGESITAEKVIMSL | -0.0828
HMPNFDPSYILDFGDVIQLQLVGQKNQILEIPILRDGSVNLPDIGKIFLSGMSLEEATKIIKDTYSA | -0.679
HMVPSTAVIFTELVSMRSEPATKSPVTHQLTKGTAITINEEKDGWYQVTDQTGNSGWIVKWAVKPTYFTNP | -0.0492
HMEKDEYIFVDIDGAVFNPGVYKLIAGSRVIDAINLAGGLKEKAFTQNLNKARKLVDGEKIYIYLEGDEE | -0.585
HMSSAYLTVRGIDIDVIYKDIKNLHIAVYPPFGRVRVAAPSHLDDDQVRLAVIQRLTWIKRQRERLRST | -1.41
HMNKEHINLDSSKFLSLLNKTKISMSNDETRHYLNGIYIHPTVSNKSSYLTGVATDSHRLSSSSIPVD | 0.121
HMSWNIHEAVEYYKGQDAPQNQFALVELLKEVQEHNGGVLTDIAVEEIAALLNTKVTFLNAVIKRYPSLK | -0.287
HMEAEPRLLDLPPGTRAGRLDKVLAQLLPEHSRSRLQGWIERGGVLVNGKEASVRQVVGPGDQLTVWEEAA | -0.0918
HMSLANTSVKEMLNDLVKNEEPSKPLSDEALVKIFKEKGVKIARRTVAKYRAELNILPSHLRRT | -0.749
HMSGTESMIEGRGEARTAIDGEGKVFFQGEYWTAQSDQFIPQGAKVRIKKVEGLNLIVEEIK | 0.0805
HMPPSRFNELSMWFQEQLTEAGLKVDSGALKMLIEWLGQDQARLPSIIEVLVSTYGTKKKLTVDEIEPFL | 0.234
HMISDEELLVSTKKEIMSLATVLTKTDKKDDAIAIMKEYDPAANPNRIKDVNKAKELLERLQKLG | -0.125
HMPSDLQATLRAVQGMLQGVEGVDARLAGQRILLEGDSADARARERAAAIAGIFPGVVIDFVG | -0.155
HMSERIITFGEATREAMLEEMRADERVFVYGEDIAKQGGIFGQFAGMKDEFPERVLDTPISETALVGAG | 0.0621
HMSGSILVQVSATDLNIRKGPGTNYGTTGKYTGKGTFTIVETRSGQGSNAGWGKLKSGAGWISLDYAKR | -1.38

Sequence | soluble fraction (log2)
HMSLEEIPLEERLGPGGLDPVAVYDSLPREMRDAFDSGSVSALREFVNALPAEDAARHMKAMVDSGLWVPT | 0.0547
HMRLREETRKVDKTGLIQVDGRHYRVPDEYSQKDVQILMDDNSIMVYRKGDFVIELDKETSVYMPH | 0.214
HMERFVVISKDKYANLREEASTNSKVLAKVDNSYLIYNTNTYNENKDWYSVQIERDGNYYQVGYIHKSQL | -1.79
HMAGGVFELTGKVTADAKAGDLVYVKAATGAGTKPVVTTVKTGADVIIGWLKEPVSSASVDQKMQVVLA | 0.147
HMGDAATVFRDHYNINSAAQAQAALDRKEALWEQPNPWRDSDNREVFDWAAQTVKDRFDSGKYKPK | 0.129
HMPVQSNRDALLDIGQTLQVQAWDAQGSARVSYRGSDWTAEFRGPGAAAPGLHRIIAVQGNRLIVEPA | 0.174
HMLDQGTQSRYQIMDGVRALITGDWSSHGAGLVRELSQEVARTSGLTATSERTFFVPFSALS | 0.0364
HMGLNVSYRMDGENVVETIIFSGATMIRTVTPTGTMTIKTIENGSTSTAKVNADYSVYKKIYEAQY | -2.59
HMSDDLIILGYSMLNNALKAFHIDPDSIKKKHWDKLAQDYHLKNKNQILTDIALGKRVNIMVAHQLTTIMD | -0.633
HMDDFITLVIHTPAHAQNLRNILESHGMEVRLEDFVSFKSPVAVAQRVKIRPKDLPLALKIIESGE | 0.227
HMDQILIHLKEGIDVTDVQPMLKALDLNVRMFNRDKNIIVISVLNRELDAIPQTIAALRPWEELFDSA | -0.00536
HMDWVAYGAELRRRRLLAGWTVAELSRRINLSGMTIHQIEKGRGRLRPSELTLAKLAAALGMPTP | -3.47
HMHLLGASIAAYRKKAGMTQEDLGRALFVSGQAVSRWERGGTPDSDMLPKIADVLGISLDTLFGRS | -0.559
HMVEPIEESISQLSLLLQSLYEDGKSEVSFEELIRSDRSRVSLFLALLFMAQRGNVYLEQEELFGDLRVKN | 0.0123
HMYSYNKEEVGKRIKSIRQQKGLTQESFGELFGASKGNVATWEKGISLPNASRLREIADLVSITVEELLYG | -0.346
HMTGDISRALDQLPADMRTVLILYALEKQRYEDIAQITGVSVGTVKSRLNRARQKLAAILANQREQNE | -0.488
HMADRDKYIIMGQQLLRAAFEHFGKKATDKALENAANKLRISDVPELYARLGSAELQPRDVINVIFPD | -0.0534
HMLMDVRVPDIIGVEINQAKEILTASSLLIGKITYVSLPEIEKDLVIETSVLAGRRVSAGTVIDITVNKE | -0.76
HMGMGIGQIIKEKRTALKMTQNELAERLGVSQQSVTGWENNAAVPRESAVRGMMDIFGLSRNELFGEP | 0.331
HMKTRTVVLKSAGGNKIAVIKIIKEITGLGLVEAKAVADNGGNIKENIPAEEAEAIKTQLTEAGAEVEL | -0.192
HMNLFKAPMPGLIRTIVVAEGQEVKKGDVILILEAMKMENALKSPADLVVKSIKVQQGQAVEKNQLLIEF | -0.0526
HMGVPELHKGEIVQAVVEKVLGEGLLRVNLKGMTVEAATSLRLNPGQQLLLRSEGIENGRQVLR | 0.00868
HMSSTAIQAMIRRLIDGEDPRKPLSDARLAETLKASGVPVARRTVAKYRESMSIPSSQDRLRI | -0.156
HMSSSKVAISQFEELVDQGQVREVVIEGSTATGTTAAGRRFAAEIPPGGMELFLSKLDDAGTTYEYSPP | ≥ 0.62
HMLKSGSAVAQARDVILEKGVPVHINEILDALGKGDTREAKASLTSSLAAYVRRGEIFTRPAPNTFGLVEL | -0.372
